The results in this text go back to US20160097084.

The test system of data set [1] is T1, SAStide-Cy5 (Syk Artificial Substrate peptide conjugated with Cy5).
T1 sequence: GGDEEDYEEPDEPGGCGG

For data set [2], the system named is T2, 5-FAM-SFAStide-A (Src-Family kinase Artificial Substrate peptide).
T2 sequence: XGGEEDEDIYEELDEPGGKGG

Turning to Syk-EGFP, the “ELISA-based chemifluorescence (anti-phosphotyrosine 4G10, HRP secondary, Amplex Red) of an in vitro kinase reaction” value in data set [1] is “the ELISA-based assay displayed increasing fluorescent signal over time for the appropriately match substrates”.
Turning to “Syk-His6 (His6-tagged spleen tyrosine kinase)”, the “TR-LRET emission (5-FAM fluorescence signal) in the in vitro kinase reaction with Syk only” value in data set [2] is recorded as “with minimal bleed through or background interference from the fluorophore attached to the other biosensor”. The “TR-LRET emission (Cy5 fluorescence signal) over the time course of an in vitro kinase reaction” value in data set [1] is “TR-LRET emission spectra for each respective biosensor displayed an increase in the conjugated dye's fluorescence signal”.
